What was measured:
[1] = molecular target: Crotalus durissus terrificus (C.d.t.) venom; assay: ELISA, venom-coated wells (5 µg/ml); dilution 1:5
[2] = molecular target: Crotalus durissus terrificus (C.d.t.) venom; assay: ELISA, venom-coated wells (5 µg/ml); dilution 1:3125
[3] = molecular target: Crotalus durissus terrificus (C.d.t.) venom; assay: ELISA, venom-coated wells; dilution 1:62,500
[4] = molecular target: Crotalus durissus terrificus (C.d.t.) venom; assay: ELISA, venom-coated wells; dilution 1:5
[5] = molecular target: Crotalus durissus terrificus (C.d.t.) venom; assay: ELISA, venom-coated wells (5 µg/ml); dilution 1:125
[6] = molecular target: Crotalus durissus terrificus (C.d.t.) venom; assay: ELISA, venom-coated wells; dilution 1:3125
[7] = molecular target: Crotalus durissus terrificus (C.d.t.) venom; assay: ELISA, venom-coated wells; dilution 1:25
[8] = molecular target: Crotalus durissus terrificus (C.d.t.) venom; assay: ELISA, venom-coated wells; dilution 1:312,500
[9] = molecular target: Crotalus durissus terrificus (C.d.t.) venom; assay: ELISA, venom-coated wells (5 µg/ml); dilution 1:25
[10] = molecular target: Crotalus durissus terrificus (C.d.t.) venom; assay: ELISA, venom-coated wells; dilution 1:625
[11] = molecular target: Crotalus durissus terrificus (C.d.t.) venom; assay: ELISA, venom-coated wells (5 µg/ml); dilution 1:625
[12] = molecular target: Crotalus durissus terrificus (C.d.t.) venom; assay: ELISA, venom-coated wells; dilution 1:125
[13] = molecular target: Crotalus durissus terrificus (C.d.t.) venom; assay: ELISA, venom-coated wells (5 µg/ml); undiluted

Substance: preimmune IgY (PEG preparation from eggs of unimmunized hens) (antibody)
- absorbance 412 nm [1]: < 0 absorbance
- absorbance 412 nm [2]: 0.002 absorbance
- absorbance 412 nm [3]: 0.001 absorbance
- absorbance 412 nm [4]: < 0 absorbance
- absorbance 412 nm [5]: 0.003 absorbance
- absorbance 412 nm [6]: < 0 absorbance
- absorbance 412 nm [7]: 0.016 absorbance
- absorbance 412 nm [8]: 0.01 absorbance
- absorbance 412 nm [9]: 0 absorbance
- absorbance 412 nm [10]: < 0 absorbance
- absorbance 412 nm [11]: 0 absorbance
- absorbance 412 nm [12]: < 0 absorbance
- absorbance 412 nm [13]: 0.003 absorbance
